Data reported in patent publication US20170233442.

Target: T1, P3L (nucleolin RRM2-derived peptide) (UniProt P19338)
T1 sequence: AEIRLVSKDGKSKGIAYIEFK
Assay: ITC
Details: 20 mM MOPS pH 7.0, 300 mM NaCl, 25 C

| Substance | Kd (unit inferred, uM from context) [µM] | other results |
| --- | --- | --- |
| SCA2CAG22 RNA (unexpanded) | – | Kd (unexpanded repeat): 17.3 µM |
| SCA2CAG42 RNA | 5.6 | – |
| SCA2CAG55 RNA | 4.83 | – |
| SCA2CAG72 RNA | – | Kd (one-site model, CD also showed structural change on RNA addition (FIG. 2)): 0.66 µM |
